The numbers were not newly measured in paper PMC3222890, which cites them from elsewhere.

Like-named read-outs stand apart in the source and are kept apart here.

Data set [1] concerns the target GDI (Saccharomyces cerevisiae) (UniProt P39958).
The target is the same in data set [2]. This is another data set of the same source.
Data set [3] has the same target. The source holds these as a separate data set.

UniProt P39958, sequence (P39958 whole entry): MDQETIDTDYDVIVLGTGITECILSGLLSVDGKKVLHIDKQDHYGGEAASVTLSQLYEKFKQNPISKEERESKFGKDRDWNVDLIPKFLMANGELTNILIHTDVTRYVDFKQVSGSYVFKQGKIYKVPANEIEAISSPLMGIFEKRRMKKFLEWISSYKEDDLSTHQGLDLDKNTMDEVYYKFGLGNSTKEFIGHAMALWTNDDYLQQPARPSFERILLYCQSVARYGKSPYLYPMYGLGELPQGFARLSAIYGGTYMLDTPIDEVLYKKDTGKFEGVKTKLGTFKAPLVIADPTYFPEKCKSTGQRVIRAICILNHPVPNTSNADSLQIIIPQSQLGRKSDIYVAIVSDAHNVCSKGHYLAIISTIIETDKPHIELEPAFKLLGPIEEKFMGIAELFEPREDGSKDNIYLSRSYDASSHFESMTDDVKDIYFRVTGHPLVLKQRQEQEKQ

Take Sec4 (from UniProt P07560): in data set [1], the Kd was 330 nM. Regarding Ypt32 (from UniProt P51996), the Kd in data set [2] was 1500 nM. Regarding Ypt31 (from UniProt P38555), the Kd in data set [3] was 18900 nM.

For orientation: Kd means a measure of binding affinity in units of concentration.
